Measurements taken from publication PMC10580122, “Human IL-35 Inhibits the Bioactivity of IL-12 and Its Interaction with IL-12Rβ2” (ImmunoHorizons, 2023).

Target: T1, recombinant human IL-12Rβ1 (human, UniProt P42701 24-545)
T1 construct: human IL-12 receptor subunit beta-1, recombinant; also called rIL-12Rβ1; source: bought: Sino Biological (11674-H08H)
Assay: ELISA; solid-phase binding assay; wells coated with rIL-12Rβ1, rIL-12Rβ2 or no IL-12R chain; IL-12 or IL-12p40 monomer alone or with IL-35, each cytokine fixed at 5 μg/ml; overnight at 4°C; detected with anti-IL-12 or anti-IL-12p40 and HRP
Conditions: both partners purified

binding result: binds
B1: Human IL-12 (complex)
chain 1: RNLPVATPDPGMFPCLHHSQNLLRAVSNMLQKARQTLEFYPCTSEEIDHEDITKDKTSTVEACLPLELTKNESCLNSRETSFITNGSCLASRKTSFMMALCLSSIYEDLKMYQVEFKTMNAKLLMDPKRQIFLDQNMLAVIDELMQALNFNSETVPQKSSLEEPDFYKTKIKLCILLHAFRIRAVTIDRVMSYLNAS
chain 2: IWELKKDVYVVELDWYPDAPGEMVVLTCDTPEEDGITWTLDQSSEVLGSGKTLTIQVKEFGDAGQYTCHKGGEVLSHSLLLLHKKEDGIWSTDILKDQKEPKNKTFLRCEAKNYSGRFTCWWLTTISTDLTFSVKSSRGSSDPQGVTCGAATLSAERVRGDNKEYEYSVECQEDSACPAAEESLPIEVMVDAVHKLKYENYTSSFFIRDIIKPDPPKNLQLKPLKNSRQVEVSWEYPDTWSTPHSYFSLTFCVQVQGKSKREKKDRVFTDKTSATVICRKNASISVRAQDRYYSSSWSEWASVPCS
notes: p35 subunit of human IL-12 (IL-12p35); linked to p40 via a disulfide bond; p40 subunit of human IL-12 (IL-12p40); linked to p35 via a disulfide bond; Bought heterodimer of p35 and p40; also called exogenous human IL-12; source: bought: PeproTech (200-12H)
